# Biological target: gbrap_human GABARAP (UniProt O95166)
# Sequence (O95166 whole entry): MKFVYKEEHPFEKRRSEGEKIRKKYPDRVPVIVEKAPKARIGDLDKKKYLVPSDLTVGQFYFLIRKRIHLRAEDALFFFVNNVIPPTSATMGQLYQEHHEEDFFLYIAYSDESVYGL
row,effect of a mutation on the interaction,Substance
1,with no effect,"Pericentriolar material 1 protein (Homo sapiens), Q15154 N1953D"
2,with no effect,"Pericentriolar material 1 protein (Homo sapiens), Q15154 N1953E"
3,with no effect,"Pericentriolar material 1 protein (Homo sapiens), Q15154 N1953F"
4,with no effect,"Pericentriolar material 1 protein (Homo sapiens), Q15154 N1953G"
5,with no effect,"Pericentriolar material 1 protein (Homo sapiens), Q15154 N1953H"
6,with no effect,"Pericentriolar material 1 protein (Homo sapiens), Q15154 N1953I"
7,with no effect,"Pericentriolar material 1 protein (Homo sapiens), Q15154 N1953K"
8,with no effect,"Pericentriolar material 1 protein (Homo sapiens), Q15154 N1953L"
9,with no effect,"Pericentriolar material 1 protein (Homo sapiens), Q15154 N1953M"
10,with no effect,"Pericentriolar material 1 protein (Homo sapiens), Q15154 N1953P"
11,with no effect,"Pericentriolar material 1 protein (Homo sapiens), Q15154 N1953Q"
12,with no effect,"Pericentriolar material 1 protein (Homo sapiens), Q15154 N1953R"
13,with no effect,"Pericentriolar material 1 protein (Homo sapiens), Q15154 N1953S"
14,with no effect,"Pericentriolar material 1 protein (Homo sapiens), Q15154 N1953T"
15,with no effect,"Pericentriolar material 1 protein (Homo sapiens), Q15154 N1953V"
16,with no effect,"Pericentriolar material 1 protein (Homo sapiens), Q15154 N1953W"
17,with no effect,"Pericentriolar material 1 protein (Homo sapiens), Q15154 N1953Y"
18,decreasing interaction strength,"Pericentriolar material 1 protein (Homo sapiens), Q15154 P1970A"
19,with no effect,"Pericentriolar material 1 protein (Homo sapiens), Q15154 P1970C"
20,decreasing interaction strength,"Pericentriolar material 1 protein (Homo sapiens), Q15154 P1970D"
21,decreasing interaction strength,"Pericentriolar material 1 protein (Homo sapiens), Q15154 P1970E"
22,with no effect,"Pericentriolar material 1 protein (Homo sapiens), Q15154 P1970F"
23,decreasing interaction strength,"Pericentriolar material 1 protein (Homo sapiens), Q15154 P1970G"

row,effect of a mutation on the interaction,Substance
1,with no effect,"Pericentriolar material 1 protein (Homo sapiens), Q15154 P1970H"
2,decreasing interaction strength,"Pericentriolar material 1 protein (Homo sapiens), Q15154 P1970I"
3,disrupting interaction strength,"Pericentriolar material 1 protein (Homo sapiens), Q15154 P1970K"
4,decreasing interaction strength,"Pericentriolar material 1 protein (Homo sapiens), Q15154 P1970L"
5,decreasing interaction strength,"Pericentriolar material 1 protein (Homo sapiens), Q15154 P1970M"
6,decreasing interaction strength,"Pericentriolar material 1 protein (Homo sapiens), Q15154 P1970N"
7,decreasing interaction strength,"Pericentriolar material 1 protein (Homo sapiens), Q15154 P1970Q"
8,decreasing interaction strength,"Pericentriolar material 1 protein (Homo sapiens), Q15154 P1970R"
9,disrupting interaction strength,"Pericentriolar material 1 protein (Homo sapiens), Q15154 P1970S"
10,disrupting interaction strength,"Pericentriolar material 1 protein (Homo sapiens), Q15154 P1970T"
11,disrupting interaction strength,"Pericentriolar material 1 protein (Homo sapiens), Q15154 P1970V"
12,with no effect,"Pericentriolar material 1 protein (Homo sapiens), Q15154 P1970W"
13,disrupting interaction strength,"Pericentriolar material 1 protein (Homo sapiens), Q15154 P1970Y"
14,with no effect,"Pericentriolar material 1 protein (Homo sapiens), Q15154 Q1956A"
15,with no effect,"Pericentriolar material 1 protein (Homo sapiens), Q15154 Q1956C"
16,with no effect,"Pericentriolar material 1 protein (Homo sapiens), Q15154 Q1956D"
17,with no effect,"Pericentriolar material 1 protein (Homo sapiens), Q15154 Q1956E"
18,with no effect,"Pericentriolar material 1 protein (Homo sapiens), Q15154 Q1956F"
19,with no effect,"Pericentriolar material 1 protein (Homo sapiens), Q15154 Q1956G"
20,with no effect,"Pericentriolar material 1 protein (Homo sapiens), Q15154 Q1956H"
21,with no effect,"Pericentriolar material 1 protein (Homo sapiens), Q15154 Q1956I"
22,with no effect,"Pericentriolar material 1 protein (Homo sapiens), Q15154 Q1956K"
23,with no effect,"Pericentriolar material 1 protein (Homo sapiens), Q15154 Q1956L"

row,effect of a mutation on the interaction,Substance
1,with no effect,"Pericentriolar material 1 protein (Homo sapiens), Q15154 Q1956M"
2,with no effect,"Pericentriolar material 1 protein (Homo sapiens), Q15154 Q1956N"
3,with no effect,"Pericentriolar material 1 protein (Homo sapiens), Q15154 Q1956P"
4,with no effect,"Pericentriolar material 1 protein (Homo sapiens), Q15154 Q1956R"
5,with no effect,"Pericentriolar material 1 protein (Homo sapiens), Q15154 Q1956S"
6,with no effect,"Pericentriolar material 1 protein (Homo sapiens), Q15154 Q1956T"
7,with no effect,"Pericentriolar material 1 protein (Homo sapiens), Q15154 Q1956V"
8,with no effect,"Pericentriolar material 1 protein (Homo sapiens), Q15154 Q1956W"
9,with no effect,"Pericentriolar material 1 protein (Homo sapiens), Q15154 Q1956Y"
10,with no effect,"Pericentriolar material 1 protein (Homo sapiens), Q15154 S1955A"
11,with no effect,"Pericentriolar material 1 protein (Homo sapiens), Q15154 S1955C"
12,with no effect,"Pericentriolar material 1 protein (Homo sapiens), Q15154 S1955D"
13,with no effect,"Pericentriolar material 1 protein (Homo sapiens), Q15154 S1955E"
14,with no effect,"Pericentriolar material 1 protein (Homo sapiens), Q15154 S1955F"
15,with no effect,"Pericentriolar material 1 protein (Homo sapiens), Q15154 S1955G"
16,with no effect,"Pericentriolar material 1 protein (Homo sapiens), Q15154 S1955H"
17,with no effect,"Pericentriolar material 1 protein (Homo sapiens), Q15154 S1955I"
18,with no effect,"Pericentriolar material 1 protein (Homo sapiens), Q15154 S1955K"
19,with no effect,"Pericentriolar material 1 protein (Homo sapiens), Q15154 S1955L"
20,with no effect,"Pericentriolar material 1 protein (Homo sapiens), Q15154 S1955M"
21,with no effect,"Pericentriolar material 1 protein (Homo sapiens), Q15154 S1955N"
22,with no effect,"Pericentriolar material 1 protein (Homo sapiens), Q15154 S1955P"
23,with no effect,"Pericentriolar material 1 protein (Homo sapiens), Q15154 S1955Q"
